Measurements: US20230340127A1 (SANFORD BURNHAM PREBYS MEDICAL DISCOVERY INSTITUTE, published 2023)

B1: FBXO44 (endogenous F-box protein FBXO44) (other, human, UniProt Q9H4M3 1-255, looked up)
chain: MAVGNINELPENILLELFTHVPARQLLLNCRLVCSLWRDLIDLVTLWKRKCLREGFITEDWDQPVADWKIFYFLRSLHRNLLHNPCAEEGFEFWSLDVNGGDEWKVEDLSRDQRKEFPNDQVKKYFVTSYYTCLKSQVVDLKAEGYWEELMDTTRPDIEVKDWFAARPDCGSKYQLCVQLLSSAHAPLGTFQPDPATIQQKSDAKWREVSHTFSNYPPGVRYIWFQHGGVDTHYWAGWYGPRVTNSSITIGPPLP
notes: Endogenous protein in cell lysates or chromatin fractions; also called FBX044
B2: CUL4B (endogenous) (other, UniProt Q13620 1-913, looked up)
chain: MMSQSSGSGDGNDDEATTSKDGGFSSPSPSAAAAAQEVRSATDGNTSTTPPTSAKKRKLNSSSSSSSNSSNEREDFDSTSSSSSTPPLQPRDSASPSTSSFCLGVSVAASSHVPIQKKLRFEDTLEFVGFDAKMAEESSSSSSSSSPTAATSQQQQLKNKSILISSVASVHHANGLAKSSTTVSSFANSKPGSAKKLVIKNFKDKPKLPENYTDETWQKLKEAVEAIQNSTSIKYNLEELYQAVENLCSYKISANLYKQLRQICEDHIKAQIHQFREDSLDSVLFLKKIDRCWQNHCRQMIMIRSIFLFLDRTYVLQNSMLPSIWDMGLELFRAHIISDQKVQNKTIDGILLLIERERNGEAIDRSLLRSLLSMLSDLQIYQDSFEQRFLEETNRLYAAEGQKLMQEREVPEYLHHVNKRLEEEADRLITYLDQTTQKSLIATVEKQLLGEHLTAILQKGLNNLLDENRIQDLSLLYQLFSRVRGGVQVLLQQWIEYIKAFGSTIVINPEKDKTMVQELLDFKDKVDHIIDICFLKNEKFINAMKEAFETFINKRPNKPAELIAKYVDSKLRAGNKEATDEELEKMLDKIMIIFRFIYGKDVFEAFYKKDLAKRLLVGKSASVDAEKSMLSKLKHECGAAFTSKLEGMFKDMELSKDIMIQFKQYMQNQNVPGNIELTVNILTMGYWPTYVPMEVHLPPEMVKLQEIFKTFYLGKHSGRKLQWQSTLGHCVLKAEFKEGKKELQVSLFQTLVLLMFNEGEEFSLEEIKQATGIEDGELRRTLQSLACGKARVLAKNPKGKDIEDGDKFICNDDFKHKLFRIKINQIQMKETVEEQASTTERVFQDRQYQIDAAIVRIMKMRKTLSHNLLVSEVYNQLKFPVKPADLKKRIESLIDRDYMERDKENPNQYNYIA
notes: also called CRL4 component

Assays:
CUL1 (endogenous) = CUL1 (endogenous) (UniProt Q13616 1-776); assay: IP from chromatin fractions, immunoblot (FIG. 1F)
Flag-Histone H3.1 = Flag-Histone H3.1 (UniProt P68431 1-136); assay: co-IP of endogenous FBXO44 with Flag-Histone H3.1 or H3.3 (FIG. 5B)
Description: (§1) Immunoprecipitation or co-immunoprecipitation (IP or co-IP): for IP, cells were lysed in IP buffer (50 mM Tris-HCl [pH 7.4], 125 mM NaCl, 1 mM EDTA, 0.1% Triton X-100) with inhibitors (50 mM NaF, 1 mM PMSF, 1 mM Na₃VO₄, 1 μg/mL Aprotinin, 1 μg/mL Leupeptin, 1 μg/mL Pepstatin) followed by sonication and centrifugation to clear insoluble debris. Lysates were then incubated with protein G agarose beads and IgG antibody of the same species as the IP antibody for 2 hr at 4° C. to reduce non-specific binding. The cleared lysates were then incubated with IP antibody overnight at 4° C. Specifically, for Flag IP, 5 μg of anti-Flag antibody (Sigma-Aldrich no. F7425) was used for 2500 μg of protein lysate. For Myc IP, anti-Myc antibody (Cell Signaling Technology no. 2276) was used at 1:1000 dilution. For FBXO44 IP, 5 μL of anti-FBXO44 antibody (Sigma-Aldrich no. HPA003363) was used for 10⁶ cells. Beads were washed with IP buffer, boiled in 1×SDS gel loading buffer, and subjected to electrophoresis.

RBBP4 (endogenous) = target: T1, RBBP4 (endogenous) (UniProt Q09028 2-425); assay: co-IP of endogenous FBXO44 in MDA-MB-231 cells, immunoblot (FIG. 4A)
T1 construct: also called DCAF RBBP4

RBBP7 (endogenous) = target: T2, RBBP7 (endogenous) (UniProt Q16576 2-425); assay: as above
T2 construct: also called DCAF RBBP7

GATAD2B (endogenous) = target: T3, GATAD2B (endogenous) (UniProt Q8WXI9 1-593); assay: co-IP of endogenous FBXO44, control vs SUV39H1 KD (FIG. 3I; its legend names GATAD2A)
T3 construct: also called Mi-2/NuRD component
Description: as §1
(§2) Next, to characterize FBXO44's molecular interactions with interactions with SUV39H1, CRL4RBBP4/7, and Mi-2/NuRD, Co-IP experiments were performed as described in example 3. For SUV39H1 IP, anti-SUV39H1 antibody (Millipore no. 05-615) was used at 1:100 dilution. For CUL4B IP, 2 μg of anti-CUL4B antibody (Proteintech no. 12916-1-AP) was used for 2500 μg of protein lysate. […]

CUL4B (endogenous) = target: B2; assay: co-IP of endogenous FBXO44 in MDA-MB-231 cells, immunoblot; CRL4 components named CUL4A/CUL4B in the legend of FIG. 4A
DDB1 (endogenous) = target: T4, DDB1 (endogenous) (UniProt Q16531 2-1140); assay: co-IP of endogenous CUL4B with DDB1 (anti-CUL4B antibody), control vs FBXO44 KD cells (FIG. 3G)
T4 construct: also called CRL4 component
Description: as §1, §2

Measured: binding result

T1 sequence (Q09028 2-425 limits assumed): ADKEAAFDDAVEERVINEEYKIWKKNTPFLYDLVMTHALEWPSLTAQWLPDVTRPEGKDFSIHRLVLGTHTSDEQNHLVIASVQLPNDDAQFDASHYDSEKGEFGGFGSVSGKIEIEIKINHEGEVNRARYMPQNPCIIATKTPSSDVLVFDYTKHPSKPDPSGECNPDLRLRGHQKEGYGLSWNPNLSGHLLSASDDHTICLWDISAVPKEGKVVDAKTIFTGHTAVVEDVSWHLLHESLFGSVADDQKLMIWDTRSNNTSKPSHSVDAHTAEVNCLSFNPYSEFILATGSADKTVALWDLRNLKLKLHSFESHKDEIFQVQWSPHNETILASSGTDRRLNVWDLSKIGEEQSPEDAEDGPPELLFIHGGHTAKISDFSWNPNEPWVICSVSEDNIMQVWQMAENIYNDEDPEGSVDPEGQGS
T2 sequence (Q16576 2-425 limits assumed): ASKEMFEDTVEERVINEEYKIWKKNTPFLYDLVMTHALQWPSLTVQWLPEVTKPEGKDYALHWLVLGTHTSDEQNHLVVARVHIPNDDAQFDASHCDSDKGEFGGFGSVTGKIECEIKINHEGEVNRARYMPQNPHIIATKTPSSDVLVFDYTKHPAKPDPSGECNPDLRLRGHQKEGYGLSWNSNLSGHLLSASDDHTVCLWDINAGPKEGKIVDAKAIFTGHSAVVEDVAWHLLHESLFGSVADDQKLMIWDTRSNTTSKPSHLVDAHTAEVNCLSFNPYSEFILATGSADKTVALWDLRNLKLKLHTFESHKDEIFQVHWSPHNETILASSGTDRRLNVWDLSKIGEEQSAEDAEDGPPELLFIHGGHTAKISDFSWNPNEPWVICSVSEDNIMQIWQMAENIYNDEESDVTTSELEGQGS
Chain of CUL1 (endogenous) (Q13616 whole entry): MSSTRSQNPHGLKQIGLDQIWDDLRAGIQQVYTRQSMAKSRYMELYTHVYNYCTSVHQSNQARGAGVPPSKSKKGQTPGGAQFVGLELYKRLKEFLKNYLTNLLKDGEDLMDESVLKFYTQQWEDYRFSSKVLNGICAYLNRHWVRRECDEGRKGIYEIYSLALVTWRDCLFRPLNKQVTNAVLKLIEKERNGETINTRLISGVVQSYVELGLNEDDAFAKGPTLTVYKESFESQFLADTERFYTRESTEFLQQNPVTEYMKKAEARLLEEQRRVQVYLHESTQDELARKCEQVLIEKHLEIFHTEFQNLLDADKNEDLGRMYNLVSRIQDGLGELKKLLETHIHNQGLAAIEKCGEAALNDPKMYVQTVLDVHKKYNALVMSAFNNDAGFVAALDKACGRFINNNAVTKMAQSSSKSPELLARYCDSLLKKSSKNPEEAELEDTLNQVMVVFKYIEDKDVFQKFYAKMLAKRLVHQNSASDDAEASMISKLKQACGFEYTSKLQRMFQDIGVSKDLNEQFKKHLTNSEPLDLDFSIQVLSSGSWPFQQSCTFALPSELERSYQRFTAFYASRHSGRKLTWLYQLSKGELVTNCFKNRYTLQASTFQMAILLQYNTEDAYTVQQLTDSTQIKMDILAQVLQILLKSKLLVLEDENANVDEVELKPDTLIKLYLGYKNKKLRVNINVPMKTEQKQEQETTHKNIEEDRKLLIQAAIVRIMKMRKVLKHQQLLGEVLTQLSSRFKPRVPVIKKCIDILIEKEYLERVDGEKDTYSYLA
T4 sequence (Q16531 2-1140 limits assumed): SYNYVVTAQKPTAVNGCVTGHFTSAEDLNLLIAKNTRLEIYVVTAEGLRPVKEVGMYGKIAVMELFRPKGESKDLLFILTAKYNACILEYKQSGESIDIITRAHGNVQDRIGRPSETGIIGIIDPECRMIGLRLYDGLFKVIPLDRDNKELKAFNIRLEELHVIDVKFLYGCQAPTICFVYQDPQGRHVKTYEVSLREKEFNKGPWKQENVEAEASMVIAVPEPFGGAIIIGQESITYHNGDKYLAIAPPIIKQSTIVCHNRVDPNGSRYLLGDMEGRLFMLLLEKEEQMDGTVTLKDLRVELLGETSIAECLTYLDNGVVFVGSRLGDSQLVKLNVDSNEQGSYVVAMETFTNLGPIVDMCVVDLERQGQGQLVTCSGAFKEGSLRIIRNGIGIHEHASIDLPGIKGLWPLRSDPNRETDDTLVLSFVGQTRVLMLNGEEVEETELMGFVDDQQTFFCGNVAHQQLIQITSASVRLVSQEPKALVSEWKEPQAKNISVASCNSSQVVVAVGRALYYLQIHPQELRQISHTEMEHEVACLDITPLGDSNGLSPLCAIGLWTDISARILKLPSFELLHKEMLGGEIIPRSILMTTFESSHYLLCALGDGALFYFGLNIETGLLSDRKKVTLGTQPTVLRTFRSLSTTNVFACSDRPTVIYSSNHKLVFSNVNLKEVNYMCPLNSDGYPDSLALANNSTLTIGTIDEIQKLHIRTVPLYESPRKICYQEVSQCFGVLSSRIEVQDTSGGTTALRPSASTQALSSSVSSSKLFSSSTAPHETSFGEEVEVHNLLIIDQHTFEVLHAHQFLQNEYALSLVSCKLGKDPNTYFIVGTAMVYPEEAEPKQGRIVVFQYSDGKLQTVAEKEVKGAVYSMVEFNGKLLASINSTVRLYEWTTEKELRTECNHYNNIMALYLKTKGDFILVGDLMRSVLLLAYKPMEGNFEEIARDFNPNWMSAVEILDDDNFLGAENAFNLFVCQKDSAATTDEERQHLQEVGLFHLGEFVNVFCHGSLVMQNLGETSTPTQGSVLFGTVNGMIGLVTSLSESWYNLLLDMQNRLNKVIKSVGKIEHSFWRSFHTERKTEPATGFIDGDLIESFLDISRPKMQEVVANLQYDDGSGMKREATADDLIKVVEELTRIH
T3 sequence (Q8WXI9 whole entry): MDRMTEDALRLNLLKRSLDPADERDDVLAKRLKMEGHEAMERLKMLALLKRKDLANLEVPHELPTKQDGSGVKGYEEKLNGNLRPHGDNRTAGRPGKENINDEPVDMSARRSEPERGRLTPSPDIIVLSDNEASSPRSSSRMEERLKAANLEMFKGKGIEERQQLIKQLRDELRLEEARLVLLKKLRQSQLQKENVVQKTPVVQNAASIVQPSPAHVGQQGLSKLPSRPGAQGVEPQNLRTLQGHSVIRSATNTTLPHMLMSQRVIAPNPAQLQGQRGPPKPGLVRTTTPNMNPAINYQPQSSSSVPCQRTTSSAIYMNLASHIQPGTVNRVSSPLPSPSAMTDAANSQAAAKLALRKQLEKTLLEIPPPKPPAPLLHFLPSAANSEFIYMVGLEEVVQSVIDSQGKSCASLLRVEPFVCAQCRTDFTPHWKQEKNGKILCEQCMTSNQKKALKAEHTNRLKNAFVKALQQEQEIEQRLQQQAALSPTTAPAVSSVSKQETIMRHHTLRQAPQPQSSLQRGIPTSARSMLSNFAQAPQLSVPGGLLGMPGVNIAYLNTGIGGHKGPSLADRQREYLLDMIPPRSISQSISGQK

B1
not listed: DDB1 (endogenous)
binds: all other assays above

B2
binds: DDB1 (endogenous)
